# Assay: label from the status in PepcDB records
row,Sequence,protein production
1,MIKIVTDNFLYEKEKVLALRYMYDSAKKPGITIITVTNKQKYIKNIMDNFRRCLYPKKEFIIILNDTKLQTSLYKNYFSKTKNLKLFKVDSSYSLGECLNLAISKSNYNYIAKMDDDDYYGSHYILDSMNAFNYTDASIIGKATHFIYFEDRTLLNLWCQGNENTYATSVAGATFVMKKSIFNKVKFNSLNNGEDIDLLSQCNNLGIKIYSCSKFNYVYNRHASPDNHSWKISNDLLVKRSIKLCITKSYKRIVHILEHHHHHH,failed
2,MIKLIATDIDGTLVKDGSLLIDPEYMSVIDRLIDKGIIFVVCSGRQFSSEFKLFAPIKHKLLYITDGGTVVRTPKEILKTYPMDEDIWKGMCRMVRDELPACDYFAATPDFCFAEDGGSPIFHLLRDSYGFEMREVDDITRLDRNDIIKFTVFHPDKCEELCTPVFIPAWNKKAHLAAAGKEWVDCNAKGVSKWTALSYLIDRFDLLPDEVCCFGDNLNDIEMLQNAGISYAVSNARQEVIAAAKHTCAPYWENGVLSVLKSFL,not failed
3,MIKSILDYLLTLHPVLLGLLGSTFTWFTTAFGAAAVFFFRKVDNKIMDAMLGFSAGIMIAASFFSLIQPAIERAEELGYITWVPAVFGFLVGAFFIYIVDVFVPDLDKLTFIDEDLTKHGKKDFLLFTAVTLHNFPEGLAVGVAFGALASNPDIQTLVGAMLLTLGIGIQNIPEGAAISLPLRRGNVALAKCFNYGQMSGLVEIVGGLMGAYAVYSFTRILPFALAFSAGAMIYVSIEQLIPEAKRKDIDNKVPSIFGVIGFTLMMFLDVSLG,failed
4,MILELQNAILEMIAKGEPLAATIEQLCLKVEAAVPGIIASVLTFDGSRLHTLAGPSLPPDYSAAVDNLEAGPLAGSCGAAAYFGEAVVVTDIETDPRWQDFKSLVLPLGLKACWSSPIKRGERVIGSFAFYYRDHRGPKALERDLVEACVHLCTIAIDREERVMERQRLTYSDALTGLSNRARFNQLLAEDLPRSGRAWGILLVDIDNLKLVNDTFGHAAGDALIQVVADRVATTAGSQNTFRLGGDEFAVIVSDDKDLDLNARATDILKALSSPSTCDGHVVFPAATIGGALAETETNPDQTRQNADLALYHAKEHNRGRYVQHYPGLGTALTRRFRAVRDVGVALEDDRIDAHYQPILRLDTREIVGFEALCRMTTPSGEIIAAAHFHEATKDAHIAAELTQRMLLRVARDIRSWLARGLPLQHVGINLSAADFRGGNLQDRLCRIFGEAEVPLKHIILEVTESVYLGQRDYVVADEIKALRSKGLRVALDDFGTGYASLTHLLTVPVDIIKIDKSFIDRMVPGDAGTFIVEGLIGIADKLGIRVVAEGIETELQAVQLSQLGCKLGQGYLFSKAVDRTVAAAILEQHGQRLDQDKTRAGAL,failed
5,MILFSPVARDSAAGQAAALRAPVSLQDDTLKIFGFDDQSVGQPLSGGTDILACLTLFNEPAEAVAGTLAFLAANQDMLASRNGPIQRLEVAIVLDGRDRVHPETEALFNRLGFDLDWGCDPEAAGIGQHGADEAQVRVQTRLIPVDLLTGVSGNPLRVHLAVKDRNRGKLDSHAFFFRSLAERLQPDFVLQIDAGSRPVADCLPALLAQMEREPDCAALATNIVMEDAALTDWLQSWQQADFLWQKLSDWPIGNGLGYLEVVPGQASLLRMSALRRGANGDPLAAYLRGLSRPKSLMEANLFLAEDRIIGAEIVKSHPACTIRYHHDANLVTDGCATVGELLRQRRRWTNSTLVARLVAIGSLADLLWHGRLPPARWCSMALALAWTLLQLLEQWFIPASLALLVSLTSGFWQDEAKNGVAGQGLAWGMATGVLLFWLYCLASMKGREGERSLSRRLHGGLHGLGLGILLACTVLGFAICLVEVGPVIQGAILTVALILGMAVWHHSSRGMSDLLRVFVLYIPSAPVASFYLLSYALANFHDVSWGTKGLVGDIKAVIPAGWRRMRLRLLILWVVSNTALVWLVMGVVPGGAISVLHYACLPVVGQIAIASLLLLSASCRKPVSPSPEVTVRAGSGPHLHR,failed
6,MILIRYLIKEVFKSQIAILLILLLIFFSQQFVRVLGAAANGNVPADLVFSLLGLGMPTMAQLMLPLCLFIAILLTFGRLYAESEITVMRACGVGQRILVKVALIMSLLTAGIAAYNALWLSPWAIQKQVNMVEDAKANPTVGVLSSGQFISTNNNNVVLFIDKIKDNQIRNVYLFQMTPQKQTKPSVITAEKGELIALPNGDQVLNLKNTKRVEGTSALPDFRITHFDEYHAYLGYQSAENTNDEVAELTLSQLIDLDSSSAKAELHWRITLILAVPLMALIAVPLSRVNPRQGRFAKILPALLLYLIYFLLQSSFKSAGSAGKLEAELLMPLVNIGFFLLAVVLNSWDSEIMYKFRYLFSKKGSAKDDKYP,failed

# Source: a protein production outcome set (Wang et al. 2014)
